Values quoted from earlier work as cited in paper PMC11794116.

Biological target: CD16a (F176) (Homo sapiens) (UniProt P08637)
Sequence (P08637 17-208): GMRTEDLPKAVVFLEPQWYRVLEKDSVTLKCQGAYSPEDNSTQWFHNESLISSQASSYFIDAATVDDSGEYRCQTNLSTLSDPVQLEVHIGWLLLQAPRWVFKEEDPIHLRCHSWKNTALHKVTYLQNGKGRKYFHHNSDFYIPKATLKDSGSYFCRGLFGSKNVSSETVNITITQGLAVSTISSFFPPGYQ

Kd: 1070 nM
Substance: trastuzumab Fc
